Values of other authors in article PMC2723763.

Biological target: ZPI (Homo sapiens) (UniProt Q9UK55)
Sequence of UniProt Q9UK55 (Q9UK55 22-444): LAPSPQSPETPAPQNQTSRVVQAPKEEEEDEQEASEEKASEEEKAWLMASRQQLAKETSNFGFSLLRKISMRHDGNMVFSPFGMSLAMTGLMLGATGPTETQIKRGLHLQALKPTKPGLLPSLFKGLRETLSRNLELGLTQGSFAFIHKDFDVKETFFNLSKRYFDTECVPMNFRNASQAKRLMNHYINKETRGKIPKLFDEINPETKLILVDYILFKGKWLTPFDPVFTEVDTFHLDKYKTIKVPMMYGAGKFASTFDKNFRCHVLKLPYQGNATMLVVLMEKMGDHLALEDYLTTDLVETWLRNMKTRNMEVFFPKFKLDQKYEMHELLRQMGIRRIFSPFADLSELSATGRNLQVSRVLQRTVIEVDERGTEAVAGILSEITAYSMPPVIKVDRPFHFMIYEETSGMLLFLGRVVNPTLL

Kd: 7 nM
Substance: protein Z (from UniProt P22891)
